Measurements: the supplement of paper PMC10567573

B1: DLC1 (parent)
chain: AEVVKIRDSFSNQNTETKDTKSR

Variants of: B1
Assay: protein stability index of a GFP-peptide fusion (GPS, HEK-293T) (PSI 1-6); higher = more stable
Conditions: c terminus: native
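Note: lentivirally expressed fusions sorted by FACS into six bins by GFP to DsRed ratio, PSI derived from sequencing read proportions per bin multiplied by bin number.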

Protein stability index of substitutions, site by site:
S9: E 3.48; N 2.22; L 2.95; P 2.64; K 2.32; R 2.53; I 1.49; D 2.27; F 1.48; G 2; T 2.29; Q 1.87
K21: I 4.85; S 5.01; H 2.96; Q 4.95; M 4.99; C 4.39; N 5.59; P 3.51; A 5.24; L 4.19; G 5.44; T 4.87; R 1.71; F 4.8; W 3.92; D 5.42
T20: C 1.93; P 2.88; A 1.79; F 1.36; L 2.71; N 3.98; V 2.61; Q 2.42; M 1.96; H 2.09; S 1.79; G 2.51; R 4.41; D 2.23; K 4.33; E 1.64
D19: V 1.91; H 2.07; Q 1.99; W 1.45; M 1.95; S 2.19; R 1.84; A 1.79; K 1.85; E 2.31; Y 2.69; P 3.03; I 2.29; T 3.09
K18: I 2.26; M 1.91; N 1.98; R 1.5; E 1.7; L 3.07; H 2.98; P 2.15; A 1.17; F 2.59; T 2.2; G 2.13; V 2.32; W 2.05; S 1.98; C 2.84; Y 1.94
N12: T 2.23; E 2.71; H 2.44; R 1.7; K 2.17; L 3.05; Y 1.78; I 2.17; C 1.63; A 2.33; G 2.51; F 1.81; P 1.95; V 1.68; M 2.5
K5: T 2.88; G 3.3; D 3.23; S 2.77; M 2.09; Q 2.43; L 2.4; Y 2.13; V 1.94; W 1.84; R 2.33
T17: F 2.54; A 2.22; D 1.83; N 1.86; K 2.17; E 2.43; Q 2.61; G 4.08; I 2.41
R7: I 2.52; V 3.12; A 3.56; S 2.42; D 3.65; G 2.87; Y 1.77; F 3.38; N 3.31; E 2.99; M 3.19; C 2.5
S22: A 1.93; I 3.14; V 2.98; L 3.48; R 2.75; C 1.82; P 4.53; D 3.23; K 2.92; E 3.8; F 4.11; M 4.06; Y 3.36; T 3.04; Q 3.03
F10: D 4; A 3.76; I 2.32; M 2.93; Q 3.46; L 3.26; S 4; N 3.64; R 4.5; E 3.46; T 3.68; P 3.63; G 4.24; H 3.71
R23: P 5.32; L 5.49; A 5.57; E 5.85; M 5.38; I 4.91; C 4.75; N 5.26; F 4.83; Q 5.65; G 4.84; K 5.49; Y 4.56; T 5.55; V 5.51; D 5.6
